Experiments:
[1] = biological target: C-terminal avi tagged 53BP1 Tudor domain, biotinylated (human) (UniProt Q12888); assay: AlphaScreen or HTRF; TR-FRET competition: 0.5 uM His-tagged i53, 0.5 uM C-terminal avi tagged 53BP1, 5 nM europium anti-His antibody, 0.5x streptavidin-XL665, i53 variant 5000-4.8 nM; 50 mM Tris pH 7.5, 150 mM NaCl, 0.02% Tween-20, 0.05% BSA; 2 h at room temperature; non-linear 4 parameter curve …
[2] = biological target: 53BP1 Tudor domain (53BP1 residues 1484–1603) (human) (UniProt Q12888)

| Substance | EC50 [1] [nM] | potency in increasing HDR / decreasing NHEJ at HBB in HSPCs (dose response of purified protein in the electroporation mix, HBB-SNP AAV6), relative to parental i53 [2] [fold] |
| --- | --- | --- |
| i53 (WT) (designed binder) | 1080 | – |
| i53 variant T12Y.T14E.L67R (designed binder) | 179 | – |
| i53 variant T12V.T14H.L67H (designed binder) | 338 | 3 |
| i53 variant L67R (designed binder) | 458 | 3 |
| i53 variant L67H (designed binder) | 465 | – |
| i53 variant L67H.H68Y (designed binder) | 501 | – |

From article PMC10960832
